# Data taken from the RNAGym collection of RNA variant scans (doi:10.1073/pnas.2313332121).
# Variants at the floor of the assay were thinned out.
# B1: TPR 5TU (parent)
# chain: GGAUCUUCUCGAUCUAACAAAAAAGACAAAUCUGCCACAAAGCUUGAGAGCAUCUUCGGAUGCAGAGGCGGCAGCCUUCGGUGGCGCGAUAGCGCCAACGUUCUCAACUAUGACACGCAAAACGCGUGCUCCGUUGAAUGGAGUUUAUCAUG
# Variants of: B1
# Assay: polymerase ribozyme fitness, log enrichment relative to wild type (log ratio); higher = more active; in vitro selection for triplet polymerase activity
# Summary of the method: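 Streptavidin-bead capture of gel-excised extended constructs, followed by RT-PCR, closed a single triplicate in vitro selection round. That round began by annealing PCR-built, transcribed mutant libraries of each subunit of a heterodimeric triplet polymerase ribozyme with a biotinylated primer, the partner subunit and triplets, then incubating them frozen at −7 °C. After Illumina sequencing of inputs and outputs, genotypes needed ≥10 input reads and ≥1 read per output. Fitness is the base-2 logarithm of genotype enrichment over wild-type enrichment, using inverse-variance-weighted replicate averages.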
row,Variant,polymerase ribozyme fitness (log ratio)
1,GGAUCUUCUCGAUCUAACAAAGAUGACAAAUCUGCCACAAAGCUUGAGAGCAUCUUCGCAUGCAGAGGCGGCAGCCUUCGGUGGCGCGAUAGCGCGAUCGUUCUCAACUAUGACACGCAAAACGCGUGCUCCGUUGAAUGGAGUUUAUCAUG [A22G A24U G59C C96G A98U],0.453
2,GGAUCUUCUCGAUCUAACAAACAAGACAAAUCUGCCACAAAGCUUGAGAGCAUCUUCGGAUGCAGAGGCGGCAGCCUUCGGUGCCGCGAUAGCGCCAACGUUCUCAACUAUGACACGCAAAACGCGUGCUCCUUUGAAUGGAGUUUAUCAUG [A22C G84C G133U],≤ -4.2
3,GGAUCUUCUCGAUCUAACAAACAAGACAAAUCUGCCACAAAGCUUGAGAGCAUCUUCGGAUGCAGAGGCGGCAGCCUUCGGUGACGCGAUAGCGCCAAAGUUCUCAACUAUGACACGCAAAACGCGUGCUCCGUUGAAUGGAGUUUAUCAUU [A22C G84A C99A G152U],≤ -4.2
4,GGAUCUUCUCGAUCUAACAAACAAGACAAAUCUGCCACAAAGCUUGAUAGCAUCUUCGGGUGCAGAGGCGGCAGCCUUCGGUGGCGCGAUAGCGCCAACGUUCUCAACUAUGACACGCAAAACGCGUGCUCCGUUGAAUGGAGUUUAUCAUG [A22C G48U A60G],0.164
5,GGAUCUUCUCGAUCUAACAAACAAGACAAAUCUGCCACAAAGCUUGAGAGCAUCUUCGGAUGCAGAGGCGGCAGCCUUCGGUGGCGCGAUACCGCCAACGUUCUCAACCAUGACACGCAAAACGCGUGCUCCGUUGAAUGGAGUUUAACAUG [A22C G92C U109C U148A],-4.16
6,GGAUCUUCUCGAUCUAACAAACAAGACAAAUCUGCCACAAAGCUUGAGAGCAACUUCGGAUGCAGAGGCGGCAGCCUUCGGUGCCGCGAUAGCGCCAACGUUCUCAACUAUAACACGCAAAACGCGUGAUCCGGUGAAUGGAGUUUCUCAUG [A22C U53A G84C G112A C129A U134G A147C],≤ -4.2
7,GGAUCUUCUCGAUCUAACAAACAAGACAAAUCUGCCACAAAGCUUGAGAGCAUCUUCGGAUGCAGAGGCGGCAGCCUUCGGUGGCGCGAUACCGCCAACGUUCUCAACUAUGAUACGCAAAACGCGUGCUCCGUUGAAUGGAGUUUAUCCUG [A22C G92C C114U A150C],≤ -4.2
8,GGAUCUUCUCGAUCUAACAAACAAGACAAAUCUGCCACAAAGCUUGAGAGCAUCUUCGGAUGCAGAGGCGGCAGCCUUCGGUGGCCCGAUAGCGCCAACGUUCUCAACUAUGACACGCAAAACGCGUGCUCCGUUGAAUGGAGUUUAUCAUG [A22C G86C],-2.83
9,GGAUCUUCUCGAUCUAACAAAGAAGACAAAUCUGUCACAAAGCUUGAGAGCAUCUUCGGAUGCAGAGGCGGCAGCCUUCGGUGGCGCGAUAGGGCCAACGUUCUCAACUAUGACACGCAAAACGCGUGCUCCGUUGAAUGGCGUUUAUCGUG [A22G C35U C93G A142C A150G],≤ -4.2
10,GGAUCUUCUCGAUCUAACAAACAAGACAAAUCUGCCACAAAGCUUGAGAGCAUCUUCGGAUGCAGAGGCGGCAGCCUUCGGUGGCGCGAUAGCGCCAACGGUCUCAACUAUGACACGCAAAACGCGUGCUCCGUUGAAUGGAGUUUAUCAUG [A22C U101G],0.0923
11,GGAUCUUCUCGAUCUAACAAACAAGACAAAUCUGCCACAAAGCUUGAGAGCAUCUAUGGAUGCAGAGGCGGCAGCCUUCGGUGGCGCGAUAGCGCCAACGUUCGCAACUAUGACACGCAAAACGCGUGCUCCGUCGAAUGGAGUUUAUCAUG [A22C U56A C57U U104G U135C],-3.35
12,GGAUCUUCUCGAUCUAACAAACAAGACAAAUCAGCCACAAAGCUUGAGAACAUCUUCGGAUGCAGUGGCGGCAGCCUUCGGUGGCGCGAUAGUGCCAACCUUCUCAACUAUGACACGCAAAACGCGUGCUCCGUUGAGUGGAGUUUAUAAUG [A22C U33A G50A A66U C93U G100C A138G C149A],≤ -4.2
13,GGAUCUUCUCGAUCUAACAAAGAGGACAAAUCUGCCACAAAGCUUGAGAGCAUCUUCGGAUGCAGAGGCGGCAGCCUUCGGUGGCGCGAUAUCGCCAACGUUCUCAACUAUGACACGCAAAACGCGUGCUCCGUUGAAUGGAGUUUAUCAUG [A22G A24G G92U],≤ -4.2
14,GGAUCUUCUCGAUCUAACAAACAAGACAAAUCUGCCACAAAGCUUGAGAGCAUCUUCGGAUGCAGAGGCGGCAGCCUUCGGUGGCGCGAUAGCGCCAACGUGCUCAACUGUGACACGCAAAACGCGUGCUCCGUUGAAUGGAGUUUAUCAUG [A22C U102G A110G],≤ -4.2
15,GGAUCUUCUCGAUCUAACAAACAAGACAAAUCUGCCACAAAGCUUGAGAGCAUCUUCGGAUGCAGAGGCGGCAGCCUUCGGUGGCUCGAUAGCGCCAACGUUCUCAACUAUGACACGCAAAACGCGUGCUACGUUGAAUGGAGUUUAUCAUG [A22C G86U C131A],≤ -4.2
16,GGAUCUUCUCGAUCUAACAAAGAAGACUGAUCUGCCCCAAAGCUUGAAAGCAUCUUCGGAUGCCGAGGCGGCAGCCUUCGGUGGGGCGAUAGCGCCAAUGUUCUCAACUAUGACACGCAAAACGAGUGCUCCGUUGGAUGGAGUUUAUCAUG [A22G A28U A29G A37C G48A A64C C85G C99U C125A A137G],≤ -4.2
17,GGAUCUUCUCGAUCUAACAAACAAGACAAAUCUGCCACAAAGCUUGAGAGCAUCUUCGGAUUCAGAGGCGGCUGCCUUCGGUGGCGCUAUAGCGCCAAUGUUCUCAACUAUGACACGAAAAACGCGUGCUCCGUUGAAUGGAGCUUAUCAUG [A22C G62U A73U G88U C99U C118A U144C],≤ -4.2
18,GGAUCUUCUCGAUCUAACAAAGUAGACAAAUCUGCCACAAAGCUUGAGAGCAGCUUAGGAUGCAGAGGCGGCAGCCUUCGGUGUCGCGAUAGCGCCAACGUUCUCAACUAUGAUACGCAAAACGCGUGUUCCGUUGAAUGGAGUUUAUCAUG [A22G A23U U53G C57A G84U C114U C129U],≤ -4.2
19,GGAUCUUCUCGAUCUAACAAAGAAGACAAAUUUGCCACAAAGCUUGAGAGCAUCUUCGGAUGCAGAGGCGGCAGCCUUCGGUGGCGCGAUAGCGCCAACGUUCUCAACUAUGACACGCAGAACGUGUGCUCCGUUGAAUGGAGUUUAUCAUG [A22G C32U A120G C125U],-3.24
